Measured values from the supplement of paper PMC7877785.
± gives the uncertainty stated by the source.

Assay: self-splicing fitness, log relative to wild type (ln ratio); higher = more splicing; Tetrahymena group I intron in knt gene, E. coli kanamycin selection, DiMSum; sequences stand for … in CUCUCU…GGAGGGAAAAGUUAUCAGGCAUGCACCUGGUAGCUAGUCUUUAAACCAAUAGAUUGCAUCGGUUUAAAAGGCAAGACCGUCAAAUUGCGGGAAAGGGGUCAACAGCCGUUCAGUACCAAGUCUCAGGGGAAACUUUGAGAUGGCCUUGCAAAGGGUAUGGUAAUAAGCUGACGGACAUGGUCCUAACCACGCAGCCAAGUCCUAAGUCAACAGAUCUUCUGUUGAUAUGGAUGCAGUUCACAGACUAAAUGUCGGUCGGGGAAGAUGUAUUCUUCUCAUAAGAUAUAGUCGGACCUCUCCUUAAUGGGAGCUAGCGGAUGAAGUGAUGCAACACUGGAGCCGCUGGGAACUAAUUUGUAUGCGAAAGUAUAUUGAUUAGUUUUGGAGUACUCGUGGUCG
Outline: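 Library with all eight P1ex-region intron nucleotides randomised, intron inside the knt kanamycin-resistance gene on pET-22b(+), in E. coli BL21(DE3). Cells grew overnight at 37°C or 30°C on LB agar with or without 25 μg/mL kanamycin (plus 100 μg/mL carbenicillin, 50 μM IPTG, 0.2% rhamnose), in six replicate transformations. Pooled colonies were amplicon-sequenced on Illumina HiSeq 2500. DiMSum fitness is the error-weighted combination of wild-type-normalised replicate fold changes, kanamycin versus none.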

Sequence | self-splicing fitness (ln) (30 °C) | self-splicing fitness (ln) (37 °C)
AGUGAGCAAUAUUACGGUUA | -2.29 ± 0.23 | -2.48 ± 0.2
UUGGAGCAAUAUUACGACAG | -1.57 ± 0.15 | -1.23 ± 0.18
CGCAAGCAAUAUUACGCUAA | -2.42 ± 0.17 | -3.24 ± 0.33
AGUGAGCAAUAUUACGAUUU | -2.6 ± 0.24 | -1.12 ± 0.22
GGGUAGCAAUAUUACGUCAA | -0.501 ± 0.13 | -0.61 ± 0.21
AGUCAGCAAUAUUACGCAUA | -2.09 ± 0.13 | -0.502 ± 0.12
GGGUAGCAAUAUUACGCACG | -2.15 ± 0.26 | 0.541 ± 0.23
GAUUAGCAAUAUUACGAUAA | -0.956 ± 0.12 | 0.0487 ± 0.15
UUCGAGCAAUAUUACGUUAG | -4.22 ± 0.42 | -3.37 ± 0.3
UCCCAGCAAUAUUACGGCGU | -0.605 ± 0.057 | 0.275 ± 0.071
CAAAAGCAAUAUUACGGGGA | -3.26 ± 0.15 | -2.36 ± 0.15
GGCGAGCAAUAUUACGCUUC | -3.8 ± 0.34 | -2.53 ± 0.49
UAAAAGCAAUAUUACGGGCG | -0.0526 ± 0.069 | 0.305 ± 0.076
GGAAAGCAAUAUUACGGGGA | -2.87 ± 0.15 | -2.9 ± 0.26
UGCCAGCAAUAUUACGACAG | -1.31 ± 0.1 | -0.406 ± 0.12
GUCCAGCAAUAUUACGAUAC | -0.876 ± 0.082 | -0.0588 ± 0.099
UUAAAGCAAUAUUACGUCGC | -3.09 ± 0.21 | -2.18 ± 0.23
GUACAGCAAUAUUACGCGUG | -2 ± 0.061 | -1.42 ± 0.072
AGGUAGCAAUAUUACGCGGG | -3.612 ± 0.026 | -2.38 ± 0.037
GCCUAGCAAUAUUACGCGUC | -1.92 ± 0.15 | -0.202 ± 0.12
AAAUAGCAAUAUUACGUUUC | -3.46 ± 0.39 | 
UUCGAGCAAUAUUACGGUAC | -3.39 ± 0.27 | -2.62 ± 0.44
AAGCAGCAAUAUUACGCCGA | -1.64 ± 0.3 | -1.61 ± 0.26
AUGAAGCAAUAUUACGUGAG | -1.27 ± 0.083 | -0.0834 ± 0.12
GUAAAGCAAUAUUACGGUUA | -0.077 ± 0.058 | 0.569 ± 0.086
CUACAGCAAUAUUACGCGAC | -1.03 ± 0.072 | -0.76 ± 0.11

Sequence | self-splicing fitness (ln) (30 °C) | self-splicing fitness (ln) (37 °C)
CUGAAGCAAUAUUACGGGCG | 0.0611 ± 0.06 | -0.103 ± 0.074
CAAUAGCAAUAUUACGCCCA | -1.6 ± 0.41 | 
UGUCAGCAAUAUUACGGGAA | -1.71 ± 0.12 | -0.986 ± 0.11
AGUAAGCAAUAUUACGGCCA | -0.532 ± 0.14 | -0.74 ± 0.16
GCCUAGCAAUAUUACGGAUU | -0.548 ± 0.085 | 0.334 ± 0.091
AUAGAGCAAUAUUACGCGAU | -2.28 ± 0.35 | -2 ± 0.26
CGGUAGCAAUAUUACGCCUC | -2.36 ± 0.38 | -0.282 ± 0.29
UAUCAGCAAUAUUACGAUUC | -0.925 ± 0.081 | -0.0952 ± 0.092
UUCGAGCAAUAUUACGUUGA | -2.77 ± 0.26 | -2 ± 0.21
CCCAAGCAAUAUUACGUCUC | -2.71 ± 0.15 | -2.25 ± 0.26
CAGUAGCAAUAUUACGGACA | -2.94 ± 0.17 | -2.23 ± 0.17
CCACAGCAAUAUUACGAGCU | -3.67 ± 0.15 | -2.4 ± 0.15
UGAAAGCAAUAUUACGUACA | -0.776 ± 0.044 | 0.0429 ± 0.066
CGCCAGCAAUAUUACGUGUC | -3.34 ± 0.15 | -2.36 ± 0.14
UGUAAGCAAUAUUACGUACU | -0.07 ± 0.081 | -0.136 ± 0.092
AUGUAGCAAUAUUACGUGGG |  | -3.13 ± 0.21
UAGCAGCAAUAUUACGUCAU | -3.68 ± 0.17 | -1.52 ± 0.13
UGAGAGCAAUAUUACGCCUU | -3 ± 0.18 | -3.73 ± 0.34
UCGAAGCAAUAUUACGCAAU |  | -2.03 ± 0.27
GAUAAGCAAUAUUACGCAGU | -2.94 ± 0.2 | -1.65 ± 0.24
ACCAAGCAAUAUUACGGAGU | -3.6 ± 0.098 | -2.25 ± 0.12
UUACAGCAAUAUUACGUUUG | -1.54 ± 0.074 | -1.14 ± 0.094
UUAAAGCAAUAUUACGAAAG | -1.66 ± 0.11 | -1.13 ± 0.17
GCAGAGCAAUAUUACGCUGC | -3.42 ± 0.48 | -1.76 ± 0.33
GAAAAGCAAUAUUACGACCU | -0.497 ± 0.13 | -1.42 ± 0.12
GAGAAGCAAUAUUACGGGGG |  | -1.8 ± 0.47

Sequence | self-splicing fitness (ln) (30 °C) | self-splicing fitness (ln) (37 °C)
UGAAAGCAAUAUUACGUCCA | 0.114 ± 0.088 | -0.497 ± 0.11
CGAUAGCAAUAUUACGUAUA | -2.37 ± 0.15 | -3.14 ± 0.23
ACGAAGCAAUAUUACGGUCC | -1.92 ± 0.21 | -0.717 ± 0.21
GGACAGCAAUAUUACGUAGA | -0.242 ± 0.08 | -0.126 ± 0.091
CGGGAGCAAUAUUACGUGGG | -2.97 ± 0.35 | 
GUUUAGCAAUAUUACGGCUG | -1.79 ± 0.1 | -0.169 ± 0.17
CGCGAGCAAUAUUACGUACG | -2.6 ± 0.24 | -1.5 ± 0.27
AUUUAGCAAUAUUACGGUGA | -1.17 ± 0.27 | -1.7 ± 0.19
CGAAAGCAAUAUUACGCUUA | -2.25 ± 0.16 | -1.24 ± 0.14
AAUAAGCAAUAUUACGCGGG | -2.62 ± 0.13 | -1.35 ± 0.14
GCUGAGCAAUAUUACGCUCG | -2.7 ± 0.36 | -0.729 ± 0.26
GCGCAGCAAUAUUACGACCG | -1.37 ± 0.18 | -0.215 ± 0.21
CCCCAGCAAUAUUACGAAGU | -3.84 ± 0.18 | -3.21 ± 0.2
AUUUAGCAAUAUUACGUAUU | -3 ± 0.16 | -1.47 ± 0.19
GCACAGCAAUAUUACGUCUG | -2.53 ± 0.1 | -1.27 ± 0.11
GCGGAGCAAUAUUACGUCAA | -2.42 ± 0.37 | 
ACUCAGCAAUAUUACGACCG | -0.553 ± 0.16 | -1 ± 0.15
GGUCAGCAAUAUUACGGAGA |  | -1.69 ± 0.28
UUCUAGCAAUAUUACGAUGC | -2.12 ± 0.3 | -2.86 ± 0.38
UCGUAGCAAUAUUACGAGCA | -0.579 ± 0.3 | -1.13 ± 0.24
CGGCAGCAAUAUUACGAUUA | -2.86 ± 0.22 | -2.17 ± 0.2
AUCCAGCAAUAUUACGAUUG | -4.83 ± 0.34 | -3.03 ± 0.24
GACAAGCAAUAUUACGCGUA | -1.12 ± 0.072 | -0.683 ± 0.078
GAGCAGCAAUAUUACGGGAA | -3.18 ± 0.26 | -2.05 ± 0.22
ACGAAGCAAUAUUACGCAGG | -1.67 ± 0.11 | -1.44 ± 0.12
